The values that follow come from patent US20100159529, “DRY COMPOSITION OF REACTION COMPOUNDS WITH STABILIZED POLMERASE” (published 2010).

The target of data set [1] is T1, Taq DNA polymerase (UniProt P19821 P19821:1-832). In words: cell_free PCR activity after drying, other; indirect functional evidence: aptamer (0.65 pmol/U Taq) preserves qPCR activity after drying with primers/probes and 1 week at 37 C; Wsebi casein Cp 24.0 vs no. The following applies: tags: glycerol free; Roche AptaTaq when complexed with aptamer. The method, then: The PCR performance of the polymerase after storage and re-solubilization was analyzed with and without detection mix (with or without primers and probes) using two different parameters. The liquid mixtures were dried 16 hours at 200 mbar and stored for 1 week at 37° C. prior to re-solubilization. As a control a liquid mixture without drying was used, too (called liquid reference in the following).
T1 sequence (P19821 whole entry, one chain of several): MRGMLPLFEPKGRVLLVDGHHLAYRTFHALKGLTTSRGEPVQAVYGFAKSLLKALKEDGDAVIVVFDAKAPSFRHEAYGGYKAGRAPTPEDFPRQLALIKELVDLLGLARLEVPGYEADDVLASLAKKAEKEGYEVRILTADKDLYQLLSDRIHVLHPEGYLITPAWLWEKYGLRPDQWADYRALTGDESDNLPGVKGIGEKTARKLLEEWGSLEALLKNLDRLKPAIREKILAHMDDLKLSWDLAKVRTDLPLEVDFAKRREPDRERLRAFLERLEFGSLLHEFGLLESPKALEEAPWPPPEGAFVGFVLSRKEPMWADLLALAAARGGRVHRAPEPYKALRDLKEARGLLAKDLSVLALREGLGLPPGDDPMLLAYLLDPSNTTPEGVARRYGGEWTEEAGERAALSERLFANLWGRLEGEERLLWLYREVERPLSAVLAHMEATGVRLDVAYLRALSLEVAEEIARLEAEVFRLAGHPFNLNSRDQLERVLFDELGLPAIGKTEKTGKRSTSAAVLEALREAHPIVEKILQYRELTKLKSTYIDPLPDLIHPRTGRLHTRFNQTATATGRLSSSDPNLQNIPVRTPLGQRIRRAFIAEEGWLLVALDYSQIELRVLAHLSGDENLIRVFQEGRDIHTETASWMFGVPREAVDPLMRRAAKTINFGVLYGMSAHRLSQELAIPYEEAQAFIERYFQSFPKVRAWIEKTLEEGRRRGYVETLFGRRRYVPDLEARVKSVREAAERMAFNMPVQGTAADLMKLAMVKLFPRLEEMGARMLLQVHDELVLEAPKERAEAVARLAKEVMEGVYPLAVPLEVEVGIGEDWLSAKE
All mixtures were provided within wells of a 384 microtiter plate (Roche Diagnostic GmbH) and after the re-solubilization a PCR run was performed on the LightCycler®480 (Roche Diagnostic GmbH) using the following run protocol: [0123] 5 minutes 95° C. [0124] 10 seconds 95° C., 30 seconds 60° C., 1 second 72° C. (45×) [0125] 10 seconds 40° C.
(In general: In qPCR the cycle at which signal appears reflects the starting amount.)

For data set [2], the target named is T1, Taq DNA polymerase. In words: indirect functional evidence: 0.5 uM aptamer with 0.8 U/ul Taq preserves qPCR activity after drying with primers/probes and 1 week at 37 C; Wsebi Cp 24.8 vs liquid reference 24.7; 60 mM Tris pH 8.3, 60 mM KCl, 6.4 mM MgCl2; binding not measured directly. The conditions noted are these: tags: glycerol free; Roche AptaTaq when complexed with aptamer. As to the method: The PCR performance of the polymerase with both aptamers were analyzed with detection mix (with primers and probes) after storage and re-solubilization using two different parameters. The liquid mixtures were dried 16 hours at 200 mbar and stored for 1 week at 37° C. prior to re-solubilization. As a control a liquid mixture without drying was used, too (called liquid reference in the following).

B1: NTQ12-46A (ssDNA)
DNA: CGATCATCTCAGAACATTCTTAGCGTTTTGTTCTTGTGTATGATCG
Turning to B1, in data set [1], the binding result is “binds”.

B2: 21-42-P (also printed 21-41-P) (ssDNA)
DNA: GATCATCTCAGAACATTCTTAGCGTTTTGTTCTTGTGTATGA
For B2, the binding result in data set [2] is “binds”.
